Data as given in patent publication US20030229922A1, “Materials and methods for the modification of plant cell wall polysaccharides” (GENESIS RESEARCH AND DEVELOPMENT CORPORATION LTD., priority 1998, published 2003).

Substrate: O=P(O)(O)O[C@H]1O[C@H](CO)[C@@H](O)[C@H](O)[C@H]1O
Assay: purified protein, by the assay type
Settings: other: E. grandis UGP; SEM 0.002

B1: Eucalyptus grandis UGP (UDP-glucose pyrophosphorylase), SEQ ID NO: 79 (DNA; protein SEQ ID NO: 103) (Eucalyptus grandis) (protein)
chain: VLFTHLPPQKPNRISLLLFFIFHITTFLLLLLLLSVLSTFISIAVSLSDPELFFASPPMAAAATLSAPDAAKLSQLKSAVSGLGQISESEKNGFINLVSRYLSGEAQHVDWSKIQTPTDEIVVPYDSLAPTPQDPAATKSLLDKLVVLKLNGGLGTTMGCTGPKSVIEVRNGLTFLDLIVIQIENLNTKYGCNVPLLLMNSFNTHDDTLKIVEKYANSNIDIHTFNQSQYPRLVVEDFMPLPCKGQTGKDGWYPPGHGDVFASLMNSGKLDALLSQGKEYVFAANSDNLGAIVDLKILNHLMTNKNEYCMEVTPKTLADVKGGTLISYEGKVQLLEIAQVPDEHINEFKSIEKFKIFNTNNLWVNLKAIKRLVEAQALKMEIIPNPKEVDGIKVLQLETAAGAAIKFFDNAIGINVPRSRFLPVKATSDLLLVQSDLYTLVDGFVERNKARTNPSNPSIELGPEFKKVGNFLSRFKSIPSIIELDSLKVSGDVWFGTGITLKGKVTIAAKPGVKLEIPDGVVLENKEIHGPEDL
In the case of B1, the Km is reported as 126 µM.
